# US20140348747A1 (published 2014)
# T1: NLpoly 11S (12-A51T)
# T1 chain: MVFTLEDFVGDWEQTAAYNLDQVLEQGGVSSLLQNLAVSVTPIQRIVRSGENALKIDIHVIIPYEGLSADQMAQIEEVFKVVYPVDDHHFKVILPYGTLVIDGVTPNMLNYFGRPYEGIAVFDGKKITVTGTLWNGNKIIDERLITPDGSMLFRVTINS
# T2: wild-type non-luminescent polypeptide (WT fragment of residues 1-156 of NanoLuc)
# T2 chain: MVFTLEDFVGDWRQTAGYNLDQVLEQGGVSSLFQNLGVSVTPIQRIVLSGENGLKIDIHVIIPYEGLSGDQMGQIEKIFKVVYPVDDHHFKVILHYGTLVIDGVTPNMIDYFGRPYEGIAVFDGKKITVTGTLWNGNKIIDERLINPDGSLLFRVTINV
# T3: NLpoly 5A2 (G15A/G35A/G51A/G67A/G71A)
# T3 chain: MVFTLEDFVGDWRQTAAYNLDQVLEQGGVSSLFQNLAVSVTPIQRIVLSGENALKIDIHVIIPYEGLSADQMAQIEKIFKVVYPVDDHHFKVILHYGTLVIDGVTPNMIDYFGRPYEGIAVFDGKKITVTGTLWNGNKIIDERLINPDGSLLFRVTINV
# B1: NLpepWT (peptide)
# peptide: GVTGWRLCERILA
# B2: NLpep80 (peptide)
# peptide: Ac-VSGWRLFKKISN-NH2
# B3: NLpep81 (peptide)
# peptide: Ac-SGWRLFKKISN-NH2
# B4: NLpep86 (peptide)
# peptide: Ac-VSGWRLFKKIS-NH2
# B5: NLpep82 (peptide)
# peptide: Ac-GWRLFKKISN-NH2
# B6: NLpep79 (peptide)
# peptide: NVTGYRLFKKISN
# Tests used:
# [1] = target: T1, NLpoly 11S (12-A51T); assay: kinetics (koff/kon)
# [2] = target: T2, wild-type non-luminescent polypeptide …; assay: luminescence complementation; PBS
# [3] = target: T2, wild-type non-luminescent polypeptide …; assay: luminescence complementation; NanoGlo
# [4] = target: T2, wild-type non-luminescent polypeptide …; assay: luminescence complementation; average HeLa, HEK293, CHO lysates
# [5] = target: 5P+V; assay: luminescence complementation
# [6] = target: 5P+VT; assay: luminescence complementation
# [7] = target: 5P+VTG; assay: luminescence complementation
# [8] = target: T3, NLpoly 5A2 (G15A/G35A/G51A/G67A/G71A); assay: luminescence complementation, one-site specific binding; replicate 1
# [9] = target: T3, NLpoly 5A2 (G15A/G35A/G51A/G67A/G71A); assay: luminescence complementation, one-site specific binding; replicate 2
# [10] = target: T3, NLpoly 5A2 (G15A/G35A/G51A/G67A/G71A); assay: luminescence complementation, one-site specific binding; replicate 3
# [11] = target: T2, wild-type non-luminescent polypeptide …; assay: kinetics (koff/kon)
Binder,Kd [1] [µM],Kd [2] [µM],Kd [3] [µM],Kd [4] [µM],Kd [5] [µM],Kd [6] [µM],Kd [7] [µM],also measured
B1,629,1.34,20.6,8.35,–,–,–,–
B2,–,–,–,–,0.0103,0.0096,0.0075,–
B3,–,–,–,–,0.15,0.218,0.283,–
B4,–,–,–,–,–,–,–,Kd [8]: 0.0991 µM; Kd [9]: 0.11 µM; Kd [10]: 0.0933 µM
B5,–,–,–,–,0.128,0.198,0.273,–
B6,42,0.487,2.89,5.13,–,–,–,Kd [11]: 5580 µM
